According to article PMC12046042 (2025):

Columns and labels:
Assay in all cases: SPR
[1] = molecular target: T1, FcγRI (CD64) extracellular domain (UniProt P12314 16-292)
T1 chain: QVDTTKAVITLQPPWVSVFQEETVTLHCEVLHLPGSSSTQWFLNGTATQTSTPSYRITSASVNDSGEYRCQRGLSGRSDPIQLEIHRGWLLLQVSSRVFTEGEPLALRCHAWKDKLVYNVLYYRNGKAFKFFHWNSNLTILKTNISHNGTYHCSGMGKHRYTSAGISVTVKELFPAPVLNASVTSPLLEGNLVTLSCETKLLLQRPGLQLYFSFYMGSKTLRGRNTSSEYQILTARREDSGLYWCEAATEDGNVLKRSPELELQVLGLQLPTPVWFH

[2] = molecular target: FcγRIIIa-158F
[3] = molecular target: FcγRIIIa-158V
[4] = molecular target: FcγRIIa-131H
[5] = molecular target: FcγRIIa-131R
[6] = molecular target: FcγRIIb

Kd [1]: 0.000474 µM
Kd [2]: > 10 µM
Kd [3]: 5 µM
Kd [4]: 4.4 µM
Kd [5]: 1.8 µM
Kd [6]: 1.9 µM
B1: LY3454738 IgG4 S228P (ucenprubart) (antibody)
chain 1: QVQLVQSGAEVKKPGASVKVSCKASGFSFSSGYYMAWVRQAPGQGLEWMGLIGVGSGSLWYAQKFQGRVTMTRDTSTSTVYMELSSLRSEDTAVYYCARHFALSDPFNLWGQGTLVTVSS
chain 2: EIVLTQSPDFQSVTPKEKVTITCQASESIDSYLLWYQQKPDQSPKLLIKQASTLASGVPSRFSGSGSGTDFTLTINSLEAEDAATYYCQNYYDISSNDFGGGTKVEIK
